This note sets out measurements from patent publication US7238491, “Pregnane X receptor method” (SmithKline Beecham Corporation).

For data set [1], the target named is T1, mPXR1/hRXR heterodimer (Mus musculus / Homo sapiens, UniProt O54915;P19793 O54915:1-431,P19793:1-462). Put plainly: competition; same profile as hPXR/RXR; little or no competition. As to conditions: tags: none; TNT rabbit reticulocyte lysate. The protocol:
(§1) Band Shift Assays hPXR, mPXR1, and hRXR were synthesized in vitro using the TNT rabbit reticulocyte lysate coupled in vitro transcription/translation system (Promega) according to the manufacturer's instructions. Gel mobility shift assays (20 µl) contained 10 mM Tris (pH 8.0), 40 mM KCl, 0.05% NP-40, 6% glycerol, 1 mM DTT, 0.2 µg of poly(dI-dC) and 2.5 µl each of in vitro synthesized PXR and RXR proteins. Competitor oligonucleotides were included at a 10-fold or 50-fold excess. After a 10 min incubation on ice, 10 ng of [^32P]-labeled oligonucleotide was added and the incubation continued for an additional 10 min. DNA-protein complexes were resolved on a 4% polyacrylamide gel in 0.5×TBE (1×TBE=90 mM Tris, 90 mM boric acid, 2 mM EDTA). Gels were dried and subjected to autoradiography at –70° C. The following oligonucleotides were used as either radiolabeled probes or competitors (sense strand is shown):
(§2) In order to determine whether hPXR interacted directly with the CYP3A4 IR6 response element, band shift assays were performed.

The target in data set [2] is T2, hPXR/hRXR heterodimer (RXR isoform not stated) (Homo sapiens, UniProt O75469;P19793 O75469:1-434,P19793:1-462). Put plainly: competition; little or no competition at 10- or 50-fold excess in EMSA. As to conditions: tags: none; TNT rabbit reticulocyte lysate. As for the experimental part:
as §1, §2

Data set [3] has as its target T2, hPXR/hRXR heterodimer (RXR isoform not …). As to the kind of experiment: competition; efficient competitor of IR6 probe at 10- or 50-fold excess in EMSA. As to conditions: tags: none; TNT rabbit reticulocyte lysate. As for the experimental part: as §1, §2
On the technique in general: A gel shift assay detects complexes by their altered migration in electrophoresis.

The target of data set [4] is T1, mPXR1/hRXR heterodimer. As to the kind of experiment: competition; same profile as hPXR/RXR; competes with IR6 probe. The conditions noted are these: tags: none; TNT rabbit reticulocyte lysate. As for the experimental part:
as §1, §2

The target of data set [5] is T1, mPXR1/hRXR heterodimer. Put plainly: EMSA; same binding profile as hPXR/RXR. The conditions noted are these: tags: none; TNT rabbit reticulocyte lysate; label: 32P (probe). The protocol: as §1, §2
The target of data set [6] is T2, hPXR/hRXR heterodimer (RXR isoform not …). Put plainly: EMSA; 10 mM Tris pH 8.0, 40 mM KCl, 0.05% NP-40, 6% glycerol, 1 mM DTT, poly(dI-dC), on ice; self-competed by unlabeled IR6. The conditions noted are these: tags: none; TNT rabbit reticulocyte lysate; label: 32P (probe). As for the experimental part: as §1, §2
The target of another data set is hRXR (Homo sapiens, UniProt P19793 P19793:1-462). As to the kind of experiment: EMSA; RXR alone without PXR. The conditions noted are these: tags: none; TNT rabbit reticulocyte lysate; label: 32P (probe). As for the experimental part: as §1, §2
Chain of hRXR (P19793 whole entry, one chain of several): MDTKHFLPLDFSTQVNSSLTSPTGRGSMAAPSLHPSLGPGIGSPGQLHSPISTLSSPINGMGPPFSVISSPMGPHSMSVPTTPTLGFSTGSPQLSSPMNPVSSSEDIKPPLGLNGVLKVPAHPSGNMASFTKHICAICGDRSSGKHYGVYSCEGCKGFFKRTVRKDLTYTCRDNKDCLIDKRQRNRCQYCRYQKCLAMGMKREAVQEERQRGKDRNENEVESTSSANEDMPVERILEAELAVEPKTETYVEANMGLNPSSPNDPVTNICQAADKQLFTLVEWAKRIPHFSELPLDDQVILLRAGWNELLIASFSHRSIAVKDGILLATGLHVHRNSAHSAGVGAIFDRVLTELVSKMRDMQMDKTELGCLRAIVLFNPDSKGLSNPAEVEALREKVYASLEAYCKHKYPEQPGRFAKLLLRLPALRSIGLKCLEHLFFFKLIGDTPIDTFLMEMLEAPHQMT

T2 sequence (O75469 whole entry, chain 1 of 2, canonical isoform): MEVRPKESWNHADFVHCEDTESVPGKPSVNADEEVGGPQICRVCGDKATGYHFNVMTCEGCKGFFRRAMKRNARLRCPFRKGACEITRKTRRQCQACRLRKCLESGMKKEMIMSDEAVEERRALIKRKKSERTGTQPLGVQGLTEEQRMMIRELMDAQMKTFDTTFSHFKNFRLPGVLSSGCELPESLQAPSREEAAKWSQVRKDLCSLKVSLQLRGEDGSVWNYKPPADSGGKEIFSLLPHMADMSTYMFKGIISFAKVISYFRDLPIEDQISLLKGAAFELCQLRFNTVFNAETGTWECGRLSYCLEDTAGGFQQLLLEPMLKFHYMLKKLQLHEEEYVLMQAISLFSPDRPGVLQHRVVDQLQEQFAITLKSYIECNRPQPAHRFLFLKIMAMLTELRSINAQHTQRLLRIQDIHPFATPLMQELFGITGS
T2 sequence (P19793 whole entry, chain 2 of 2, canonical isoform): as the sequence (P19793 whole entry, one chain of several) above
T1 sequence (O54915 whole entry, chain 1 of 2): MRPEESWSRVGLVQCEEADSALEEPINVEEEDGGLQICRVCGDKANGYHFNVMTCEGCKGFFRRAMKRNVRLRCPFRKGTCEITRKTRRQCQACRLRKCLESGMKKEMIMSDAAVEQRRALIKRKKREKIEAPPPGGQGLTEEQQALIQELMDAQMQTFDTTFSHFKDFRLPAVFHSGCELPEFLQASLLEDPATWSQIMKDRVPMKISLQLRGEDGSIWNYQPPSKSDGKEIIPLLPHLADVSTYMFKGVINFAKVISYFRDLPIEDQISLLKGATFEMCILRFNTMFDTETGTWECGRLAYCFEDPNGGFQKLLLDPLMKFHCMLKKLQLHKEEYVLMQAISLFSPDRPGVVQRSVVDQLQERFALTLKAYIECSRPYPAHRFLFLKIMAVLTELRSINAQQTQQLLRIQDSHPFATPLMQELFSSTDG
T1 sequence (P19793 whole entry, chain 2 of 2): as the sequence (P19793 whole entry, one chain of several) above

B1: CYP3A4 IR6 m2 (dsDNA)
DNA 1: GATCAATAACAACTCAAAGGAGGTCAGTG
DNA 2: CACTGACCTCCTTTGAGTTGTTATTGATC
For B1, the binding result (with mPXR1/hRXR heterodimer [1]; in data set [2]) was “no binding” each time.

B2: CYP3A1 DR3 PXRE (dsDNA)
DNA 1: GATGCAGACAGTTCATGAAGTTCATCTAGATC
DNA 2: GATCTAGATGAACTTCATGAACTGTCTGCATC
For the molecule B2, the binding result (in data set [3]; with mPXR1/hRXR heterodimer [4]) was “binds” each time.

B3: CYP3A4 IR6 m1 (dsDNA)
DNA 1: GATCAATATGTTCTCAAAGGAGAACAGTG
DNA 2: CACTGTTCTCCTTTGAGAACATATTGATC
As to B3, the binding result (with mPXR1/hRXR heterodimer [1]; in data set [2]) was “no binding” in each case.

B4: CYP3A4 IR6 PXRE (dsDNA)
DNA 1: GATCAATATGAACTCAAAGGAGGTCAGTG
DNA 2: CACTGACCTCCTTTGAGTTCATATTGATC
Regarding B4, the binding result in the data set with mPXR1/hRXR heterodimer [5] is “binds”; in data set [6] it was “binds”; in the data set with hRXR, “no binding”.
